To fix the notation:
B1: Lipopolysaccharide-induced tumor necrosis factor-alpha factor (Homo sapiens), Q99732 (parent)
chain: MSVPGPYQAATGPSSAPSAPPSYEETVAVNSYYPTPPAPMPGPTTGLVTGPDGKGMNPPSYYTQPAPIPNNNPITVQTVYVQHPITFLDRPIQMCCPSCNKMIVSQLSYNAGALTWLSCGSLCLLGCIAGCCFIPFCVDALQDVDHYCPNCRALLGTYKRL
B2: ATP synthase mitochondrial F1 complex assembly factor 2 (Homo sapiens), Q8N5M1 (parent)
chain: MWRSCLRLRDGGRRLLNRPAGGPSASMSPGPTIPSPARAYAPPTERKRFYQNVSITQGEGGFEINLDHRKLKTPQAKLFTVPSEALAIAVATEWDSQQDTIKYYTMHLTTLCNTSLDNPTQRNKDQLIRAAVKFLDTDTICYRVEEPETLVELQRNEWDPIIEWAEKRYGVEISSSTSIMGPSIPAKTREVLVSHLASYNTWALQGIEFVAAQLKSMVLTLGLIDLRLTVEQAVLLSRLEEEYQIQKWGNIEWAHDYELQELRARTAAGTLFIHLCSESTTVKHKLLKE
partner: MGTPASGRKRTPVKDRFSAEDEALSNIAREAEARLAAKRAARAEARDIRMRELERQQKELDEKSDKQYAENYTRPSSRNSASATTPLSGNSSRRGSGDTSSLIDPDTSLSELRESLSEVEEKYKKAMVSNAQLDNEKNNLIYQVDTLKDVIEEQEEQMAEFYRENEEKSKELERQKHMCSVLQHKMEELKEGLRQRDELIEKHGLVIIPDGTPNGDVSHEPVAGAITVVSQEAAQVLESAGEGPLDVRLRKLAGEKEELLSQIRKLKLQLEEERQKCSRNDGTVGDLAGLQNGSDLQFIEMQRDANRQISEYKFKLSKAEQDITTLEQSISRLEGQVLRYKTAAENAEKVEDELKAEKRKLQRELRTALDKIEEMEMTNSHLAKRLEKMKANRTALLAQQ
B3: Caspase-10 (Homo sapiens), Q92851-4 (parent)
chain: MKSQGQHWYSSSDKNCKVSFREKLLIIDSNLGVQDVENLKFLCIGLVPNKKLEKSSSASDVFEHLLAEDLLSEEDPFFLAELLYIIRQKKLLQHLNCTKEEVERLLPTRQRVSLFRNLLYELSEGIDSENLKDMIFLLKDSLPKTEMTSLSFLAFLEKQGKIDEDNLTCLEDLCKTVVPKLLRNIEKYKREKAIQIVTPPVDKEAESYQGEEELVSQTDVKTFLEALPQESWQNKHAGSNGNRATNGAPSLVSRGMQGASANTLNSETSTKRAAVYRMNRNHRGLCVIVNNHSFTSLKDRQGTHKDAEILSHVFQWLGFTVHIHNNVTKVEMEMVLQKQKCNPAHADGDCFVFCILTHGRFGAVYSSDEALIPIREIMSHFTALQCPRLAEKPKLFFIQACQGEEIQPSVSIEADALNPEQAPTSLQDSIPAEADFLLGLATVPGYVSFRHVEEGSWYIQSLCNHLKKLVPRHEDILSILTAVNDDVSRRVDKQGTKKQMPQPAFTLRKKLVFPVPLDALSL
B4: U4/U6 small nuclear ribonucleoprotein Prp31 (Homo sapiens), Q8WWY3 (parent)
chain: MSLADELLADLEEAAEEEEGGSYGEEEEEPAIEDVQEETQLDLSGDSVKTIAKLWDSKMFAEIMMKIEEYISKQAKASEVMGPVEAAPEYRVIVDANNLTVEIENELNIIHKFIRDKYSKRFPELESLVPNALDYIRTVKELGNSLDKCKNNENLQQILTNATIMVVSVTASTTQGQQLSEEELERLEEACDMALELNASKHRIYEYVESRMSFIAPNLSIIIGASTAAKIMGVAGGLTNLSKMPACNIMLLGAQRKTLSGFSSTSVLPHTGYIYHSDIVQSLPPDLRRKAARLVAAKCTLAARVDSFHESTEGKVGYELKDEIERKFDKWQEPPPVKQVKPLPAPLDGQRKKRGGRRYRKMKERLGLTEIRKQANRMSFGEIEEDAYQEDLGFSLGHLGKSGSGRVRQTQVNEATKARISKTLQRTLQKQSVVYGGKSTIRDRSSGTASSVAFTPLQGLEIVNPQAAEKKVAEANQKYFSSMAEFLKVKGEKSGLMST
partner: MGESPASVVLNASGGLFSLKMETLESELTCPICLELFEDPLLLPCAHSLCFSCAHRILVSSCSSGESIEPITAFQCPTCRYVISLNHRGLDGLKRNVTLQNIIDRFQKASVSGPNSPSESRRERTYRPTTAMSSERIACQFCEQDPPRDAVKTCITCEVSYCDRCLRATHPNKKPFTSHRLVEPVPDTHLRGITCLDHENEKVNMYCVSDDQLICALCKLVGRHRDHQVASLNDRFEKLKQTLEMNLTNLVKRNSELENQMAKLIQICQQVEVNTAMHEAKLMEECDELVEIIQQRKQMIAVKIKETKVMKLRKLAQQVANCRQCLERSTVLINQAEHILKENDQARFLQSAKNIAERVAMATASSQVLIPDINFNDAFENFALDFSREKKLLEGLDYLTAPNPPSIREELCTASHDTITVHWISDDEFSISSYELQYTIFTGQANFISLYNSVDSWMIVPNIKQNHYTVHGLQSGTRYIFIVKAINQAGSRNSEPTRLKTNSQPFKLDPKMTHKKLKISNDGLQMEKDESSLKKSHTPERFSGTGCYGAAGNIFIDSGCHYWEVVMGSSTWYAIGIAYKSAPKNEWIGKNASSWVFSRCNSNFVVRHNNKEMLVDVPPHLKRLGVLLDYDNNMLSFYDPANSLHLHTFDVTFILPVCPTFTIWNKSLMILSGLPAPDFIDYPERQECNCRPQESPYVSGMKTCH
B5: E3 ubiquitin-protein ligase Midline-1 (Homo sapiens), O15344 (parent)
chain: METLESELTCPICLELFEDPLLLPCAHSLCFNCAHRILVSHCATNESVESITAFQCPTCRHVITLSQRGLDGLKRNVTLQNIIDRFQKASVSGPNSPSETRRERAFDANTMTSAEKVLCQFCDQDPAQDAVKTCVTCEVSYCDECLKATHPNKKPFTGHRLIEPIPDSHIRGLMCLEHEDEKVNMYCVTDDQLICALCKLVGRHRDHQVAALSERYDKLKQNLESNLTNLIKRNTELETLLAKLIQTCQHVEVNASRQEAKLTEECDLLIEIIQQRRQIIGTKIKEGKVMRLRKLAQQIANCKQCIERSASLISQAEHSLKENDHARFLQTAKNITERVSMATASSQVLIPEINLNDTFDTFALDFSREKKLLECLDYLTAPNPPTIREELCTASYDTITVHWTSDDEFSVVSYELQYTIFTGQANVVSLCNSADSWMIVPNIKQNHYTVHGLQSGTKYIFMVKAINQAGSRSSEPGKLKTNSQPFKLDPKSAHRKLKVSHDNLTVERDESSSKKSHTPERFTSQGSYGVAGNVFIDSGRHYWEVVISGSTWYAIGLAYKSAPKHEWIGKNSASWALCRCNNNWVVRHNSKEIPIEPAPHLRRVGILLDYDNGSIAFYDALNSIHLYTFDVAFAQPVCPTFTVWNKCLTIITGLPIPDHLDCTEQLP
partner: B4 partner
B6: Dual specificity protein phosphatase 23 (Homo sapiens), Q9BVJ7 (parent)
chain: MGVQPPNFSWVLPGRLAGLALPRLPAHYQFLLDLGVRHLVSLTERGPPHSDSCPGLTLHRLRIPDFCPPAPDQIDRFVQIVDEANARGEAVGVHCALGFGRTGTMLACYLVKERGLAAGDAIAEIRRLRPGSIETYEQEKAVFQFYQRTK
B7: Pigment epithelium-derived factor (Homo sapiens), P36955 (parent)
chain: MQALVLLLCIGALLGHSSCQNPASPPEEGSPDPDSTGALVEEEDPFFKVPVNKLAAAVSNFGYDLYRVRSSTSPTTNVLLSPLSVATALSALSLGAEQRTESIIHRALYYDLISSPDIHGTYKELLDTVTAPQKNLKSASRIVFEKKLRIKSSFVAPLEKSYGTRPRVLTGNPRLDLQEINNWVQAQMKGKLARSTKEIPDEISILLLGVAHFKGQWVTKFDSRKTSLEDFYLDEERTVRVPMMSDPKAVLRYGLDSDLSCKIAQLPLTGSMSIIFFLPLKVTQNLTLIEESLTSEFIHDIDRELKTVQAVLTVPKLKLSYEGEVTKSLQEMKLQSLFDSPDFSKITGKPIKLTQVEHRAGFEWNEDGAGTTPSPGLQPAHLTFPLDYHLNQPFIFVLRDTDTGALLFIGKILDPRGP
partner: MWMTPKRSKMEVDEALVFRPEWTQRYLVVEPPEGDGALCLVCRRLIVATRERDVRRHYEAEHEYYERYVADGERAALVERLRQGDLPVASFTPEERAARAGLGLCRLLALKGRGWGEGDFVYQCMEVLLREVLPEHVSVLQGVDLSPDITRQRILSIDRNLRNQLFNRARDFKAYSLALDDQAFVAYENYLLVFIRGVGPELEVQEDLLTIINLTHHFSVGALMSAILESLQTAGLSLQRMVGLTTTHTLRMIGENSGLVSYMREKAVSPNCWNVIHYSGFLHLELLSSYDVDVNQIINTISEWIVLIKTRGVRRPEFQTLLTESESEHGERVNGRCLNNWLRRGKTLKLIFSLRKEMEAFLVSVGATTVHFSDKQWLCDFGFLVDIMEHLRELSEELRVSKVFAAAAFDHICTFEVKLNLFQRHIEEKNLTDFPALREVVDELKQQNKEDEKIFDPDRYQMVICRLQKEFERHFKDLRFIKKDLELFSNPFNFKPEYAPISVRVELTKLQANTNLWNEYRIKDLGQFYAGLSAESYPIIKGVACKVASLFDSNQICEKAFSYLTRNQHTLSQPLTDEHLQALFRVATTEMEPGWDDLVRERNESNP
B8: U4/U6 small nuclear ribonucleoprotein Prp3 (Homo sapiens), O43395 (parent)
chain: MALSKRELDELKPWIEKTVKRVLGFSEPTVVTAALNCVGKGMDKKKAADHLKPFLDDSTLRFVDKLFEAVEEGRSSRHSKSSSDRSRKRELKEVFGDDSEISKESSGVKKRRIPRFEEVEEEPEVIPGPPSESPGMLTKLQIKQMMEAATRQIEERKKQLSFISPPTPQPKTPSSSQPERLPIGNTIQPSQAATFMNDAIEKARKAAELQARIQAQLALKPGLIGNANMVGLANLHAMGIAPPKVELKDQTKPTPLILDEQGRTVDATGKEIELTHRMPTLKANIRAVKREQFKQQLKEKPSEDMESNTFFDPRVSIAPSQRQRRTFKFHDKGKFEKIAQRLRTKAQLEKLQAEISQAARKTGIHTSTRLALIAPKKELKEGDIPEIEWWDSYIIPNGFDLTEENPKREDYFGITNLVEHPAQLNPPVDNDTPVTLGVYLTKKEQKKLRRQTRREAQKELQEKVRLGLMPPPEPKVRISNLMRVLGTEAVQDPTKVEAHVRAQMAKRQKAHEEANAARKLTAEQRKVKKIKKLKEDISQGVHISVYRVRNLSNPAKKFKIEANAGQLYLTGVVVLHKDVNVVVVEGGPKAQKKFKRLMLHRIKWDEQTSNTKGDDDEESDEEAVKKTNKCVLVWEGTAKDRSFGEMKFKQCPTENMAREHFKKHGAEHYWDLALSESVLESTD
partner: B4 partner

The variants in one assay derive from B1. Particulars: with UBQLN1, Q9UMX0-2.
Sequence of UBQLN1, Q9UMX0-2 (Q9UMX0 other isoform, or with tags, fused parts or gaps): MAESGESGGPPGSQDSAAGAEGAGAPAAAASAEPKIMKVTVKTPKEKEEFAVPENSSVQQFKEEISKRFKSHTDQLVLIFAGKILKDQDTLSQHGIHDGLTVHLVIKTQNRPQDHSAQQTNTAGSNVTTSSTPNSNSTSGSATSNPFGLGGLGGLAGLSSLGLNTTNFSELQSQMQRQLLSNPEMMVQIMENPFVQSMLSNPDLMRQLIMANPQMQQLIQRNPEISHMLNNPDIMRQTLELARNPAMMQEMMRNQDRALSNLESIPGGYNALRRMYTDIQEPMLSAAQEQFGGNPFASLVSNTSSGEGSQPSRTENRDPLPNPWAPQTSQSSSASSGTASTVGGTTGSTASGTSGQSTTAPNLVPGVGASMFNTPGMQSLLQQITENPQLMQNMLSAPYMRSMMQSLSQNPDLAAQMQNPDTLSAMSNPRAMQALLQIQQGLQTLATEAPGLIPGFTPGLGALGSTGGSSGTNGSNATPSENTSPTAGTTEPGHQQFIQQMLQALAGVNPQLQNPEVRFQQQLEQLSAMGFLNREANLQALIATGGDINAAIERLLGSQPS
As for G112S, the “effect of a mutation on the interaction” value is listed as “disrupting interaction strength”.

For I92V, the “effect of a mutation on the interaction” value was “with no effect”.

Variants of B1 are the subject of the next assay. Particulars: with stam2_human STAM2, O75886.
Regarding G112S, the “effect of a mutation on the interaction” value was “disrupting interaction strength”.

With I92V, the “effect of a mutation on the interaction” value is on record as “with no effect”.

The variants in another assay derive from B1. The following applies: with reep6_human REEP6, Q96HR9.
Sequence of reep6_human REEP6, Q96HR9 (Q96HR9 whole entry): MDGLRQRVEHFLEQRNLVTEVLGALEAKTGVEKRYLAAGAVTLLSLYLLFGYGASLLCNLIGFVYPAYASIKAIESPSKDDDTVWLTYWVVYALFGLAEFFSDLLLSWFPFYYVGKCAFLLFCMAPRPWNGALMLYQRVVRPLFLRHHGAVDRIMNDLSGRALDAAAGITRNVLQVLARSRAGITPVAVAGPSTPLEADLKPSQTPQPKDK
In the case of G112S, the “effect of a mutation on the interaction” value was “disrupting interaction strength”.

On to I92V, for which the “effect of a mutation on the interaction” value was “with no effect”.

The variants in a further assay derive from B1. The following applies: with hgs_human HGS.
On to G112S, for which the “effect of a mutation on the interaction” value is “disrupting interaction strength”.

As for I92V, the “effect of a mutation on the interaction” value was “with no effect”.

In another assay the parent is B1. Particulars: with OPTN.
On to G112S, for which the “effect of a mutation on the interaction” value was “disrupting interaction strength”.

As to I92V, the “effect of a mutation on the interaction” value is “with no effect”.

Another assay covers variants of B2. The following applies: with LRRFIP2, Q9Y608-2.
Take W94R: the “effect of a mutation on the interaction” value is “disrupting interaction strength”.

In a further assay the parent is B3. Particulars: with xiap_human XIAP.
With V410I, the “effect of a mutation on the interaction” value is “disrupting interaction strength”.

On to P501L, for which the “effect of a mutation on the interaction” value is recorded as “disrupting interaction strength”.

Variants of B4 are the subject of the next assay. The following applies: with MID2, Q9UJV3-2.
For the variant L107V, the “effect of a mutation on the interaction” value is on record as “with no effect”.

A further assay covers variants of B5. The following applies: with MID2, Q9UJV3-2.
Consider P151L, for which the “effect of a mutation on the interaction” value is given as “with no effect”.

L626P: the “effect of a mutation on the interaction” value is “with no effect”.

Regarding C266R, the “effect of a mutation on the interaction” value is reported as “with no effect”.

In the case of K370E, the “effect of a mutation on the interaction” value is listed as “with no effect”.

In a further assay the parent is B6. Particulars: with exos8_human EXOSC8, Q96B26.
Sequence of exos8_human EXOSC8, Q96B26 (Q96B26 whole entry): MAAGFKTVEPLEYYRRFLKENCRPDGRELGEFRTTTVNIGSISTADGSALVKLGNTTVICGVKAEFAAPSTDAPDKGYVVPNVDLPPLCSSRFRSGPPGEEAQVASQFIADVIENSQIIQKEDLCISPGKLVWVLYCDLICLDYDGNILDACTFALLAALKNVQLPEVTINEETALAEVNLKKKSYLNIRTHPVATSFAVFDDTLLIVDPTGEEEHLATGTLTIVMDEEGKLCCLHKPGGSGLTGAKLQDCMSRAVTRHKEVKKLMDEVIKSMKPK
As to G131S, the “effect of a mutation on the interaction” value is “with no effect”.

The next assay covers variants of B7. Particulars: with epmip_human EPM2AIP1, Q7L775.
As to T72M, the “effect of a mutation on the interaction” value is listed as “with no effect”.

Variants of B8 are the subject of another assay. Particulars: with MID2, Q9UJV3-2.
As to T494M, the “effect of a mutation on the interaction” value is “with no effect”.

(Values after IntAct's records for PubMed 25910212.)
